Reference: patent publication US20260092110A1 (Kyowa Kirin, published 2026)

Key:
[1] = target: T1, extracellular domain protein of human MOG to which GST is added at the C-terminus (hMOG-GST) (human); experiment: SPR, antibody captured, hMOG-GST analyte
Procedure: (§1) The antibodies were immobilized on CM5 sensor chips using a Human antibody Capture kit, and the binding abilities were evaluated using rMOG-GST produced in Example 4 as an analyte. The obtained sensorgrams were analyzed with BIA evaluation software, and the dissociation constants (KD values) were thus calculated.
The results of evaluation of the affinities to human MOG are shown in Table 14, and the results of evaluation of the affinities to mouse MOG are shown in Table 15.

[2] = target: T2, extracellular domain protein of mouse MOG to which GST is added at the C-terminus (mMOG-GST) (mouse); experiment: SPR, antibody captured, mMOG-GST analyte
T2 sequence (chain, as listed by the source limits assumed): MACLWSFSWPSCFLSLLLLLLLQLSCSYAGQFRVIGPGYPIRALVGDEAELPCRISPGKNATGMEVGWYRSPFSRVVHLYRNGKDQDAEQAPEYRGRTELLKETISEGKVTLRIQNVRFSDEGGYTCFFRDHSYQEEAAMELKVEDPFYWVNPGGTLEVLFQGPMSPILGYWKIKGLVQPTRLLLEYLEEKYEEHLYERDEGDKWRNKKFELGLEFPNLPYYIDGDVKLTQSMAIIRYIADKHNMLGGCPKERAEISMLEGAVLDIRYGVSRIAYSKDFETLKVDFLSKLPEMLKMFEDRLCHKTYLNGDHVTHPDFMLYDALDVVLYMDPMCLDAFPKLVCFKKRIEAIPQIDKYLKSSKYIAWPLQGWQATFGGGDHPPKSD

[3] = target: T1, extracellular domain protein of human …; experiment: SPR, antibody captured, hMOG-GST analyte; KD not unique (ka outside range)
[4] = target: T1, extracellular domain protein of human …; experiment: SPR, antibody captured, hMOG-GST analyte; ka outside the measurement range
[5] = target: T2, extracellular domain protein of mouse …; experiment: SPR, antibody captured, mMOG-GST analyte; paragraph 625: KD could not be determined as a unique value
[6] = target: T2, extracellular domain protein of mouse …; experiment: SPR, antibody captured, mMOG-GST analyte; paragraph 625: ka of MOG01 scFv-hG4PE outside the measurement range
[7] = target: T3, extracellular domain protein of rat MOG to which GST is added at the C-terminus (rMOG-GST) (rat); experiment: SPR Biacore T-100, antibody captured, rMOG-GST analyte
T3 construct: whole construct entry
Procedure: as §1

[8] = target: T3, extracellular domain protein of rat MOG …; experiment: SPR Biacore T-100, antibody captured, rMOG-GST analyte; KD not unique (kd outside range)
Procedure: as §1

[9] = target: T3, extracellular domain protein of rat MOG …; experiment: SPR Biacore T-100, antibody captured, rMOG-GST analyte; kd outside the measurement range
Procedure: as §1

[10] = target: T4, rat MOG (rMOG) expressed on HEK293F cells (rat, UniProt Q63345 28-245); experiment: flow cytometry on HEK293 cells transiently expressing rat MOG; antibody at 10 µg/mL, RPE-labelled goat anti-human antibody; negative control anti-AVM antibody
T4 construct: also called rMOG/HEK293F
T4 sequence: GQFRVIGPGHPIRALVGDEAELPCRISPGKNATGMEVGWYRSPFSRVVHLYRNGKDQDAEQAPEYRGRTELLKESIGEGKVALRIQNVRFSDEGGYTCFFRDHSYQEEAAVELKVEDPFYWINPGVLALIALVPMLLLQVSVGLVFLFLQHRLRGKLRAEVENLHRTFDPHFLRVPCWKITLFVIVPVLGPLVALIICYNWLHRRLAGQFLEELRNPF
Procedure: (§2) rMOG/HEK293F, mMOG/IEK293F, cMOG/HEK293 and hMOG/HEK293 cells were suspended in a Staining Buffer (SB) of PBS containing 0.1% NaN₃ and 1% FBS each at a concentration of 5×10⁵ cells/mL and dispensed to a round-bottom 96-well plate (manufactured by Becton Dickinson).
(§3) After centrifugation (2000 rpm, 4° C., two minutes), the supernatants were removed, and the antibodies obtained in Example 6 at 10 μg/mL were added to the pellets. After suspending the pellets, the plate was left to stand at ice temperature for 30 minutes. The supernatants were removed after further centrifugation (2000 rpm, 4° C., two minutes), and the pellets were washed with SB. Then, 1 μg/mL RPE fluorescently labeled goat anti-human antibody (manufactured by […]) was added, and the plate was incubated at ice temperature for 30 minutes.
(§4) After washing with SB, the cells were suspended in SB, and the fluorescence intensities of the cells were measured using a flow cytometer FACS CANTO II (manufactured by Becton Dickinson). As the negative control, an anti-AVM antibody was used.

[11] = target: T5, human MOG (hMOG) expressed on HEK293, Expi293F or L929 cells (human, UniProt Q16653 30-247); experiment: flow cytometry on HEK293 cells transiently expressing human MOG; antibody at 10 µg/mL, RPE-labelled goat anti-human antibody; negative control anti-AVM antibody
T5 construct: also called hMOG/HEK293; hMOG/HEK293F
T5 chain: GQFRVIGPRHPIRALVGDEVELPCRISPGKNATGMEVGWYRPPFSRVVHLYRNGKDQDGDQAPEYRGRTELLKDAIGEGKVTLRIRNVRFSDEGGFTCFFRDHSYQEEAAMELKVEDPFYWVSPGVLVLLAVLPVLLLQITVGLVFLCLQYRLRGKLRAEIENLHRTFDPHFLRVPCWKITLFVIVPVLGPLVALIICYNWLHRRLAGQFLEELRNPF
Procedure: as §2, §3, §4

[12] = target: T6, cynomolgus monkey MOG (cMOG) expressed on HEK293 cells (cynomolgus monkey, UniProt Q9BGS7 30-247); experiment: flow cytometry on HEK293 cells transiently expressing cynomolgus monkey MOG; antibody at 10 µg/mL, RPE-labelled goat anti-human antibody; negative control anti-AVM antibody
T6 construct: also called cMOG/HEK293
T6 sequence: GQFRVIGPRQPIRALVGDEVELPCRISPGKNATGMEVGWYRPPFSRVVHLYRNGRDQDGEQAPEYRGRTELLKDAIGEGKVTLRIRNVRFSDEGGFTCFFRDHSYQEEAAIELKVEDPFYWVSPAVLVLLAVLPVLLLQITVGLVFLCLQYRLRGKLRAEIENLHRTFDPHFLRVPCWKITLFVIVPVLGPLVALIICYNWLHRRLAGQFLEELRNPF
Procedure: as §2, §3, §4

[13] = target: T3, extracellular domain protein of rat MOG …; experiment: SPR as in Example 8 (antibody captured, rMOG-GST analyte)
Procedure: as §1

[14] = target: T3, extracellular domain protein of rat MOG …; experiment: as above; remark: listed apart in the source
Procedure: as §1
Binding of the bispecific antibodies obtained in Example 6 and Example 16 to MOG was evaluated by the same method as that of Example 8.

[15] = target: T6, cynomolgus monkey MOG (cMOG) expressed …; experiment: flow cytometry on HEK293 cells transiently expressing cynomolgus monkey MOG; RPE-labelled goat anti-human antibody; negative control anti-AVM antibody

B1: MOG01 scFv-hG4PE (Fc fusion)
chain: QVQLQQSGAGLLKPSETLSLTCAVSGGSFSGYYWTWIRQRPGKGLEWIGEINHRGSTDYNPSLKSRVTMSIDTSKSQFSLNLKSVTAADTAVYYCARAAWGSCYDGTCYPAEYFQYWGQGTLVTVSSGGGGSGGRASGGGGSQSALTQPASVSGSPGQSITISCTGTSRDVGGYNYVSWYQQHPGKAPKLMIYDVNNRPSGVSNRFSGSKSGNTASLTISGLQAEDEADYFCSSYTSSSTPVVFGGGTKLTVL
[1]
  koff: 0.015 s⁻¹
[2]
  koff: 0.04 s⁻¹
[3]
  Kd: 3.6 nM
[4]
  kon: 4.1e+06 M⁻¹ s⁻¹
[5]
  Kd: 6.9 nM
[6]
  kon: 5.9e+06 M⁻¹ s⁻¹

B2: MOG09 antibody (anti-MOG human IgG antibody expressed from N5LG4PE_MOG09) (antibody, V domains shown)
VH: QVQLQESGPGLVKSSETLSLTCAVSGHSISSAYYWGWIRQPPGKGLEWLGSIYHSGNTYYNPSLKSRVTISVDTSKNQFSLRLTSVTAADTAVYYCARGRGYSGYDSGMDVWGQGTTVTVSS
VL: SYVLTQPPSASGTPGQRVTISCSGTSSNIGINSVNWYQQLPGMAPKLVIYSRDQRPSGVPDRFSGSQSGTSASLAINGLQSEDEADYWCSTWDDSLNGWVFGGGTKLTVL
[7]
  kon: 9000 M⁻¹ s⁻¹
[8]
  Kd: 0.021 nM
[9]
  koff: 1.9e-07 s⁻¹
[10]
  binding result: binds
[11]
  binding result: binds
[12]
  binding result: binds

B3: AVM IgG4PE(R409K)_MOG01dscFv antibody (bispecific antibody)
heavy: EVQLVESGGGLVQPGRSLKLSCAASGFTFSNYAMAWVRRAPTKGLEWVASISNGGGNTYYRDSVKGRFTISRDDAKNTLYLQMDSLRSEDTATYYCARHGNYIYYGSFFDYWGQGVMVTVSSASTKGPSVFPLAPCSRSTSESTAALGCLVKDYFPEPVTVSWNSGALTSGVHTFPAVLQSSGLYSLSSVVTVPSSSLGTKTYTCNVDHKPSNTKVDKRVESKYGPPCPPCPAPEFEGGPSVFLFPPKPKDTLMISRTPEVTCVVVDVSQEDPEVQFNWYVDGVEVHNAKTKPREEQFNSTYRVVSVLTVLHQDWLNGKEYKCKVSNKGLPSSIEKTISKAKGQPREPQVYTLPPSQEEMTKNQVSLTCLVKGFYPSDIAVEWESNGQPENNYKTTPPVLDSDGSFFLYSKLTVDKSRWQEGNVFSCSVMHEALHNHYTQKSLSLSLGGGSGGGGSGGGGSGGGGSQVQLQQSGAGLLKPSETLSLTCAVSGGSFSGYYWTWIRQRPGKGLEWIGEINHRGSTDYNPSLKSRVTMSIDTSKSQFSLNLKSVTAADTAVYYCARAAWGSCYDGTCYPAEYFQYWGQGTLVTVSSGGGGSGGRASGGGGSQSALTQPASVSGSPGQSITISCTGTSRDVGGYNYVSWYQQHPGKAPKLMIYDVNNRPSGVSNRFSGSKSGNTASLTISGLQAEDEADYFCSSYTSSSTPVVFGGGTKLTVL
light: QFVLSQPNSVSTNLGSTVKLSCKRSTGNIGSNYVSWYQQHEGRSPTTMIYRDDKRPDGVPDRFSGSIDRSSDSALLTINNVQTEDEADYFCQSYSSGINIFGGGTKLTVLGQPKAAPSVTLFPPSSEELQANKATLVCLISDFYPGAVTVAWKADSSPVKAGVETTTPSKQSNNKYAASSYLSLTPEQWKSHRSYSCQVTHEGSTVEKTVAPTECS
notes: MOG01 scFv fused to the C-terminus of anti-AVM IgG; also called pCI-AVM-hLG4PE(R409K)_MOG01scFv
[13]
  Kd: 200 nM
  koff: 0.0046 s⁻¹
  kon: 23000 M⁻¹ s⁻¹
[14]
  Kd: 200 nM
  koff: 0.0049 s⁻¹
  kon: 24000 M⁻¹ s⁻¹

B4: iMOG-3Rim1-S32 antibody (VHH-Fc expressed from N5G4PEFc_iMOG-3Rim1-S32) (Fc fusion)
chain: QVQLVESGGGLVQTGGSLRLSCAASGSMFSTMGWFRQAPGNQRELVAIMSSGGTANYADSVKGRFTISGDNVKNTVTLQMNSLNPEDTAVYYCRFTGWVKSSFSTYWGQGTQVTVSS
notes: not shown: Fc region of human IgG4PE
[15]
  binding result: no binding (tested: 10 µg/mL)

B5: MOG14 antibody (anti-MOG human IgG antibody expressed from N5KG4PE_MOG14) (antibody, V domains shown)
VH: QVQLVQSGAEVKKPGASVKVSCQASGYTFTGDYIHWVRQAPGQGLEYLGWINPDRGFTYYTQKFQGRVTMTRDTSSNTAYMELSSLRSDDTAMYYCTRENPRAYFFDLWGQGTLVTVSS
VL: EIVLTQSPGTLSLSPGERATLSCRASQSISGSYVTWYQQKPGQAPRLLIYATSNRAIGIPDKFSGGGSGRDFTLTINRLEPEDFAVYYCQQSVSSPYTFGQGTKVEIK
[7]
  Kd: 40 nM
  koff: 0.00019 s⁻¹
  kon: 4700 M⁻¹ s⁻¹
[10]
  binding result: binds
[11]
  binding result: binds
[12]
  binding result: binds
